This data set is described as follows: yeast display, Sf9 membrane polyspecificity reagent, FACS + sequencing; frameworks hold sequencing errors. The essentials:
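Nanobodies came from a synthetic yeast display library in Saccharomyces cerevisiae BJ5465, induced with galactose for 36–48 hours and stained for 1 hour at 4 °C with 10% biotinylated, detergent-solubilized Sf9 membrane reagent. Cells were enriched on streptavidin microbeads and then FACS-sorted, with low and high (top ~1%) gates set on anti-HA fluorescence for expression and streptavidin fluorescence for reagent binding. Each polyreactivity label reflects the gate a clone came from. Genes were amplified by colony PCR, sequenced by MiSeq 2 × 250 and filtered by CDR length.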
“QVQLVESGGGLVQAGGSLRLSCAASGSIFRGNAMGWYRQAPGKERELVAGINRAGSTKYADSVKGRFTISRDNAKNTVYLQMNSLKPEDTAVYYCAAVRYERGLWSDYWGQGTQVSVSS”: the “polyreactivity (PSR sort gate)” value is “high polyreactivity”.

On to “QVQLVESGGGLVQAGGSLRLSCAASGSIFRGNAMGWYRQAPGKERELVATITNGGSTNYADSVKGRFTISRDNAKNTVYLQMNSLKPEDTAVYYCNADHSYHIASTRHVDYWGQGTQVTVSS”, for which the “polyreactivity (PSR sort gate)” value is “low polyreactivity”.

As to “QVQLVESGGGLVQAGGSLRLSCAASGSIFRGYAMGWYRQAPGKERELVAAITSRGGSTYYADSVKGRFTISRDNAKNTVYLQMNSLKPEDTAVYYCNKRVYYPWGQGTQVTVSS”, the “polyreactivity (PSR sort gate)” value is listed as “high polyreactivity”.

Regarding “QVQLVESGGGLVQAGGSLRLSCAASGSIFRGYAMGWYRQAPGKERELVAAITSSAGSTYYADSVKGRFTISRDNAKNTVYLQMNSLKPEDTAVYYCNKYPRASRRGFDYWGQGTQVTVSS”, the “polyreactivity (PSR sort gate)” value was “high polyreactivity”.

Take “QVQLVESGGGLVQAGGSLRLSCAASGSIFRINAMGWYRPARGKERELVAATTKYADSVKGRFTISRDNAKNTVYLQMHSLKPEDTAVYYCAAAPIGGSSHPYDYWGQGTQVTVTS”: the “polyreactivity (PSR sort gate)” value is “low polyreactivity”.

For “QVQLVESGGGLVQAGGSLRLSCAASGSIFRIYAMGWYRHAPGKERELVAAITGRGGSTYYADSVKGRFTISRDNEKNTVYLQMNSLKPEDTAVYYCAAEERYAYRYDYWGQGTQVTVSS”, the “polyreactivity (PSR sort gate)” value is “high polyreactivity”.

In the case of “QVQLVESGGGLVQAGGSLRLSCAASGSIFRIYAMGWYRQAPGKERELVAAISWTGGSTYYADSVKGRFTISRDNAKNTFFLQMNSLKPEDTAVYYCAARPRYKFSAYEYWGQGTQVTVSS”, the “polyreactivity (PSR sort gate)” value was “high polyreactivity”.

Turning to “QVQLVESGGGLVQAGGSLRLSCAASGSIFRIYAMGWYRQSPGKERELVAAISFSTGSRTYYADSVKGRFTISRDNAKNTVYLQMNSLKPEDTAVYYCNAESYYDYNYWGQGTQVTVSS”, the “polyreactivity (PSR sort gate)” value was “low polyreactivity”.

Turning to “QVQLVESGGGLVQAGGSLRLSCAASGSIFRKNAMGWYRQAPGKERELVAAISSSGGRTYYADSVKGRFTISRDNAKNTVYLQMNSLKPEDTAVYYCAAVYSKGGSSRISPGDDYWGQGTQVTVSS”, the “polyreactivity (PSR sort gate)” value is listed as “high polyreactivity”.

Turning to “QVQLVESGGGLVQAGGSLRLSCAASGSIFRKNVMGWSRPAPGKERELVAAITASGGRTYYADSVKGRFTISRDNAKNTVYLQMNSLKPEDTAVYYCAARRYYPYISSGPYYYWGQGTQVTVSS”, the “polyreactivity (PSR sort gate)” value is listed as “high polyreactivity”.

Take “QVQLVESGGGLVQAGGSLRLSCAASGSIFRKYAMGWYRQAPGKDRELVAAISKRGGSTYYADSVKGRFTISRDNAKNTVYLQMNSLKPEDTAVYYSNALRRYVSVRPTKSDYWGQGTQVTVSS”: the “polyreactivity (PSR sort gate)” value was “high polyreactivity”.

On to “QVQLVESGGGLVQAGGSLRLSCAASGSIFRKYAMGWYRQAPGKERELVAVITTDGSTNYADSVKGLFTISRDNAKNTVYLQMNSLKPEDTAVYYCNAVRSSIGTDNDYWGQGTQVTVSS”, for which the “polyreactivity (PSR sort gate)” value is reported as “low polyreactivity”.

Regarding “QVQLVESGGGLVQAGGSLRLSCAASGSIFRKYTMGWYRQAPGKERELVAAISRIGGSTYYADSVKGRFTISRDNAKNTVYLQMNSLKPEDTAVYYCAKRGPRSYFQPWYDYWGQGTQVTVSS”, the “polyreactivity (PSR sort gate)” value is on record as “high polyreactivity”.

With “QVQLVESGGGLVQAGGSLRLSCAASGSIFRLNVMGWYRQAPGKERELVAVITGSGTRTNYADSVKGRFTISRDNAKNTVYLQMNSLKPEDTAVYYCNRVTTPTVTYGYGKMDYWGHGTQVTVSS”, the “polyreactivity (PSR sort gate)” value is “high polyreactivity”.

With “QVQLVESGGGLVQAGGSLRLSCAASGSIFRLYAMGWYRQAPGKERELVAAITRGDSTNYADSVKGRFTISRDNAKNTVYLQMNSLKPEDTAVYYCAVTGRLYAHPQGYDYWGQGTQVTVSS”, the “polyreactivity (PSR sort gate)” value was “low polyreactivity”.

Take “QVQLVESGGGLVQAGGSLRLSCAASGSIFRNNAMGWYRQAPGKERELVASISSSGDSTYADSVKGRFTISRDNAKNTVYLQMNSLKPEDTAVYYCARDYLSPYAVDYWGQGTQVTVSS”: the “polyreactivity (PSR sort gate)” value is “low polyreactivity”.

On to “QVQLVESGGGLVQAGGSLRLSCAASGSIFRNNAMGWYRQAPGKERELVAVISRRSGNTYYADSVKGRFTISRDNAKNTVYLQMNSLKPEDTAVYYCAADYSKSSIRGDYWGQGTQVTVSS”, for which the “polyreactivity (PSR sort gate)” value is “low polyreactivity”.

Consider “QVQLVESGGGLVQAGGSLRLSCAASGSIFRNYAMGWYRQAPGKERELVAAISYRGGSTYYADSVKGRFTISRDNAKNTVYLQMNSLKPEDTAVYYCAARTRKAYYYWGQGTQVTVSS”, for which the “polyreactivity (PSR sort gate)” value is recorded as “high polyreactivity”.

As for “QVQLVESGGGLVQAGGSLRLSCAASGSIFRNYAMGWYRQAPGKERELVATIRYRGGRTYADSVKGRFTISRDNAKNTVYLQMNRLKPEDTAFYYCNTYARYAYLTGRMDYWGQGTQVTVSS”, the “polyreactivity (PSR sort gate)” value was “high polyreactivity”.

On to “QVQLVESGGGLVQAGGSLRLSCAASGSIFRPNAMGWYRQAPGKERELVAAITWSGDSTYYADSVKGRFTISRDNAKNTVYLQMNSLKPEDTAVYYCAKYSLVFYISLYGYWGQGTQVTVSS”, for which the “polyreactivity (PSR sort gate)” value is recorded as “low polyreactivity”.

On to “QVQLVESGGGLVQAGGSLRLSCAASGSIFRPYAMGWYRQAPGKEMELVAAISSSGGSTYYADSVKGRFTISRDNAKNTVYLQMNSLKPEDTAVYYCAAESRSTWIHSRDYWGQGTQVTVSS”, for which the “polyreactivity (PSR sort gate)” value is listed as “low polyreactivity”.

On to “QVQLVESGGGLVQAGGSLRLSCAASGSIFRPYAMGWYRQAPGKERELVAAISSSSGRTYYADSVKGRFTISRDNAKNTVYLQMNSLKPEDTAVYYCAADRYSFRGDYYWGQGTQVTVSS”, for which the “polyreactivity (PSR sort gate)” value is “low polyreactivity”.

For “QVQLVESGGGLVQAGGSLRLSCAASGSIFRPYAMGWYRQAPGKERELVAAISYRGGSTYYADSVKGRFTISRDNAKNTVYLQMNSLKPEDTAVYYCAADSREEGDYWGQGTQVTVSS”, the “polyreactivity (PSR sort gate)” value is recorded as “low polyreactivity”.

For the sequence “QVQLVESGGGLVQAGGSLRLSCAASGSIFRPYTMGWYRQAPGKERELVATISSTGITNYADSVKGRFTISRDNAKNTVYLQMNSLKPEDTAVYYCAARGRYVTPQPSYDYWGQGTQVTVSS”, the “polyreactivity (PSR sort gate)” value is recorded as “high polyreactivity”.

Take “QVQLVESGGGLVQAGGSLRLSCAASGSIFRQNAMGWYRQAPGKERELVAAISWSGVRTYYADSVKGRFTISRDNAKNTVYLQMNSLKPEDTAVYYCATRYTHVYYGRISSSPKFDSWGQGTQVTVSS”: the “polyreactivity (PSR sort gate)” value is listed as “low polyreactivity”.

On to “QVQLVESGGGLVQAGGSLRLSCAASGSIFRRNAMGWYRQAPGKEREFVAAITWNGGSTYYADSEKGRFTNSRDNAKNPVYLQRNSLKPEDTAVYYCAARAFYYAGDWYGYWGQGTQVTVSS”, for which the “polyreactivity (PSR sort gate)” value is “high polyreactivity”.

Turning to “QVQLVESGGGLVQAGGSLRLSCAASGSIFRRNAMGWYRQAPGKERELVAAIRSGGGTNYADSVKGRFTISRDNAKNTVYLQMNSLKPEDTAVYYCAAVYERYYLFEYDYWGQGTQVTVSS”, the “polyreactivity (PSR sort gate)” value is “low polyreactivity”.

For the sequence “QVQLVESGGGLVQAGGSLRLSCAASGSIFRRNPMGWYRQAPGKESELVAAISSSGGSTYYADSVKGGFTISRDIAKNTFYLQMNSVKPEDTAVYYCAARFGPQYRFDYWGQGTQVTVSS”, the “polyreactivity (PSR sort gate)” value is recorded as “high polyreactivity”.

Turning to “QVQLVESGGGLVQAGGSLRLSCAASGSIFRRNTMGWYRQAPGKERELVAAISTRGGSTYYADSVKGRFTISRDNAKNTVYLQMNSLKPEDTAVYYCNTRGYYIVHRGYDYWGQGTQVTVSS”, the “polyreactivity (PSR sort gate)” value is “high polyreactivity”.

As to “QVQLVESGGGLVQAGGSLRLSCAASGSIFRRYAMGWYRQAPGKEREFVAAITRSGGGTYYADSVKGRFTISRDNAKNTVYLQMNSLKPEDSAVYYCAKDVFVQRSRYPEGDYWGQGTQVTVSS”, the “polyreactivity (PSR sort gate)” value is recorded as “high polyreactivity”.

Values taken from the nanobody polyreactivity screen of Harvey et al. (2022).
